The target of assay [1] is fHbp Variant 2 (Neisseria meningitidis). As to the kind of experiment: SPR.
For assay [2], the target named is fHbp Variant 3 (Neisseria meningitidis). In words: SPR. A general note: In SPR one partner is held on a chip, and binding of the other changes the refractive index at the surface.
The target in assay [3] is factor H binding protein (wild type, variant 1) (UniProt E6MV22). In words: SPR; sensorgram.
Assay [4] shares this target. As to the kind of experiment: SPR.

Two substances from patent publication US20120052092A1 can be followed below.

The Kd is the concentration at which binding is half-saturated.

fH678, sequence (P08603 321-509): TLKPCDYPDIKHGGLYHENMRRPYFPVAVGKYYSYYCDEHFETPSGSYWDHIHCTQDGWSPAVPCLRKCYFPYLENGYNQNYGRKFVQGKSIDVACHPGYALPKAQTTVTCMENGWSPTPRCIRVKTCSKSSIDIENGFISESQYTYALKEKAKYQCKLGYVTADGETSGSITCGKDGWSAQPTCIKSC

FH67 N339E M340S: the results for the Kd in assay [1] and in assay [2] were 44 nM and 165 nM, respectively.
With fH678 (from UniProt P08603 321-509), the dissociation constant (Kd) in assay [3] amounted to 4.69 nM; in assay [4], 5 nM.
